{"source": "IntAct's records for PubMed 19366670", "parents": {"B1": {"name": "10 kDa anti-sigma factor (Enterobacteria phage T4), P32267 (parent)", "chain": "MNKNIDTVREIITVASILIKFSREDIVENRANFIAFLNEIGVTHEGRKLNQNSFRKIVSELTQEDKKTLIDEFNEGFEGVYRYLEMYTNK"}}}
{"variants_of": "B1", "conditions": "with rpob_ecoli rpoB"}
{"variant": "N74D", "effect of a mutation on the interaction": "decreasing interaction strength"}
